# Measured values from patent US20090137002A1 (published 2009).
# Positions count from the first letter of the chain named.
# T1: recombinant mouse EphB3-Fc fusion protein (mouse, UniProt P54754 30-537, limits assumed)
# T1 construct: also called mEphB3; not shown: Fc part, not described
# T1 sequence (looked up): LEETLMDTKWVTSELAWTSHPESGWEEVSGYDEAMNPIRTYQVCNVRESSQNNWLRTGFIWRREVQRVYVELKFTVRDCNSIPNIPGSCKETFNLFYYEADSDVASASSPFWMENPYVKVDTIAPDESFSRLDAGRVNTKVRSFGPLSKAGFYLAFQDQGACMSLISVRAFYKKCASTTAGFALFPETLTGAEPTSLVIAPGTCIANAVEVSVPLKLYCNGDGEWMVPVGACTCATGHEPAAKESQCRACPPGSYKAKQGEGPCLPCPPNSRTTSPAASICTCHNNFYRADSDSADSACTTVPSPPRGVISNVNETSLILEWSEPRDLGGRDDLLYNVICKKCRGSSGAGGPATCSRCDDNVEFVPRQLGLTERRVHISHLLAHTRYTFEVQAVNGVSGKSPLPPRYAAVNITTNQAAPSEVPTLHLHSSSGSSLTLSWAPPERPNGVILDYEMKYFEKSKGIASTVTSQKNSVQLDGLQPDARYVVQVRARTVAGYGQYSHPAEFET
# T2: myc-tagged human EphB4 on transfected CHO cells (human, UniProt P54760 16-987)
# T2 construct: whole, on cells; also called CHO-EphB4; CHO-hEphB4; not shown: myc tag
# T2 sequence (looked up): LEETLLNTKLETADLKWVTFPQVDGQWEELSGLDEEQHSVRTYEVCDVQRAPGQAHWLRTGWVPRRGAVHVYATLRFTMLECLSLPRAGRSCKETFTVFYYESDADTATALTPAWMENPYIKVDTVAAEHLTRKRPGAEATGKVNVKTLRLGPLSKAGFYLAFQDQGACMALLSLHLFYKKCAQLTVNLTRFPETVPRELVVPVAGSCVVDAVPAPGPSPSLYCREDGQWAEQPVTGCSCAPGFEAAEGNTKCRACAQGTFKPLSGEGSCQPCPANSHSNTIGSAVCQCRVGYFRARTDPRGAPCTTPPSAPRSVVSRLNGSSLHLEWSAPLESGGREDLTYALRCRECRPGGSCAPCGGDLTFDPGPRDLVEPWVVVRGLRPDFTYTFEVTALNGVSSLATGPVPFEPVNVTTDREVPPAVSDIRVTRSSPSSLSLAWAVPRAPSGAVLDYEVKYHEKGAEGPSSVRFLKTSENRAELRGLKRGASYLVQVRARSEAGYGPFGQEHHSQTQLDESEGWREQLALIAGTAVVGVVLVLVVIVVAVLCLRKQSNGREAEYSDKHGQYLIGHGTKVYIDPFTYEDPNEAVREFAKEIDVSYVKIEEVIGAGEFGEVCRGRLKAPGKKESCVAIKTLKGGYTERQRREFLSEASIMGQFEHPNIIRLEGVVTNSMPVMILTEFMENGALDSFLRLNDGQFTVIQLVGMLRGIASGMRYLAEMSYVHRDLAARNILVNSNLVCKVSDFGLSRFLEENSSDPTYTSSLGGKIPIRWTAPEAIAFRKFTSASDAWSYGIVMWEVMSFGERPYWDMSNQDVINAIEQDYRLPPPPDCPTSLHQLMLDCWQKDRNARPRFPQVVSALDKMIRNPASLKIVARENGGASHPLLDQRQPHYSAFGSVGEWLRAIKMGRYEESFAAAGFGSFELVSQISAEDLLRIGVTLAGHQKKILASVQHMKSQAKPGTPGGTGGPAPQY
# B1: mEphrinB2-Fc fusion protein (Fc fusion, mouse, UniProt P52800 27-227, looked up)
# chain: ISRSIVLEPIYWNSSNSKFLPGQGLVLYPQIGDKLDIICPKVDSKTVGQYEYYKVYMVDKDQADRCTIKKENTPLLNCARPDQDVKFTIKFQEFSPNLWGLEFQKNKDYYIISTSNGSLEGLDNQEGGVCQTRAMKILMKVGQDASSAGSARNHGPTRRPELEAGTNGRSSTTSPFVKPNPGSSTDGNSAGHSGNNLLGSE
# notes: not shown: Fc part, not described
# B2: MOR07728 IgG4-Pro (antibody, V domains shown)
# VH: QVELVQSGAEVKKPGSSVKVSCKASGGTFSTYAISWVRQAPGQGLEWMGRIIPIFGTANYAQKFQGRVTITADESTSTAYMELSSLRSEDTAVYYCARSSYTILTTYYNYNAMDNWGQGTLVTVSS
# VL: DIQMTQSPSSLSASVGDRVTITCRASQNINNFLNWYQQKPGKAPKLLIYGSSILQSGVPSRFSGSGSGTDFTLTISSLQPEDFATYYCQQNDFYSPSTFGQGTKVEIKR
# notes: Fab MOR07728 converted into human IgG4-Pro format
# B3: MOR07956 IgG4-Pro (antibody, V domains shown)
# VH: B2 VH with R50K, T57D, N59D
# VL: B2 VL with N91Y, S95L, P96S, S97G
# notes: Fab MOR07956 converted into human IgG4-Pro format
# B4: MOR07953 IgG4-Pro (antibody, V domains shown)
# VH: QVELVESGGGLVQPGGSLRLSCAASGFTFNNAWMSWVRQAPGKGLEWVSAINAKGQFTSYADSVKGRFTISRDNSKNTLYLQMNSLRAEDTAVYYCARKGMSFYNNKYAKSMFDLWGQGTLVTVSS
# VL: DIELTQPPSVSVAPGQTARISCSGDNLGKKYVHWYQQKPGQAPVLVIYYDSKRPSGIPERFSGSNSGNTATLTISGTQAEDEADYYCQTWTLSHMGNVFGGGTKLTVLG
# notes: Fab MOR07953 converted into human IgG4-Pro format
# B5: MOR07724 IgG4-Pro (antibody, V domains shown)
# VH: B4 VH with E3Q, A50G, N52S, K54D, Q56V, F57H, T58K, S59F
# VL: B4 VL with Q88S, T89A, L92T, S93T, H94M, G96H, N97I
# notes: Fab MOR07724 converted into human IgG4-Pro format
# B6: MOR07721 IgG4-Pro (antibody, V domains shown)
# VH: QVQLVESGGGLVQPGGSLRLSCAASGFTFNNAWMSWVRQAPGKGLEWVSTIEAKMPNGATFYAAPVKGRFTISRDNSKNTLYLQMNSLRAEDTAVYYCARKGMSFYNNKYAKSMFDLWGQGTLVTVSS
# VL: B4 VL with Q88S, T89A, L92T, S93T, H94M, G96H, N97I
# notes: Fab MOR07721 converted into human IgG4-Pro format
# B7: MOR07955 IgG4-Pro (antibody, V domains shown)
# VH: B2 VH with R50K, T57D, N59D
# VL: DIQMTQSPSSLSASVGDRVTITCRASQNINNFLNWYQQKPGKAPKLLIYGSSILQSGVPSRFSGSGSGTDFTLTISSLQPEDFATYYCSQDHFYPPSGTFGQGTKVEIKR
# notes: Fab MOR07955 converted into human IgG4-Pro format
# B8: MOR07957 IgG4-Pro (antibody, V domains shown)
# VH: B2 VH with R50Q, T57D, N59D
# VL: B2 VL
# notes: Fab MOR07957 converted into human IgG4-Pro format
# Target: T1, recombinant mouse EphB3-Fc fusion …
# Assay: ELISA: mEphrinB2-Fc (25 ng/ml) on coated mEphB3-Fc, with or without 100 µg/mL anti-EphB4 Fab
# Experimental: Specificity for EphB4 in ELISA: Wells of a 96-well maxisorp-plate were coated overnight with 100 μL recombinant human EphB4 (hEphB4)-, recombinant mouse EphB3 (mEphB3)- or recombinant mouse EphA4 (mEphA4)-Fc fusion protein at a final concentration of 2.5 μg/mL in PBS. Anti-EphB4 Fab fragments (purified, MH-tagged) were added (100 μL/well, 100 μg/mL final concentration in chemiblock) to respective wells and incubated for 1 h at RT. Then 100 μl mEphrinB2-Fc fusion protein either spiked with the respective anti-EphB4 Fab or with PBS was added (25 ng/ml mEphrinB2+/−100 μg/ml Fab diluted in chemiblock) and incubated for max. 20 min at RT. The amount of bound EphrinB2 was detected using biotinylated goat anti-EphrinB2 antibody (0.05 μg/ml final concentration diluted in chemiblock, 1 h at RT), AP-conjugated streptavidin and AttoPhos substrate. Fluorescence was measured (RFU) at 535 nm (430 nm excitation).
row,binding result,Binder
1,binds,B1

# Target: T2, myc-tagged human EphB4 on transfected …
# Assay: FACS, IgG4-Pro inhibition of murine ephrin-B2 binding to CHO-EphB4 cells; n = 1
# Experimental: (§1) C50 values (i.e. IgG4-Pro inhibition of ligand binding) were determined in FACS. […] Receptor-bound ephrin-B2 was detected via biotinylated anti-mouse ephrin-B2 antibody (R&D Systems) and streptavidin-PE. The IC50 values of the IgGs, determined in two independent experiments, are given in Table 11 and are compared to the IC50 values of the corresponding Fab. […] Again, as already seen for the Fab, the IC50 values of the MOR07310 pool were slightly better than those of the MOR03641 pool.
row,IC50,Binder
1,3.26 nM,B2
2,0.43 nM,B3

# Target: T2, myc-tagged human EphB4 on transfected …
# Assay: FACS, IgG4-Pro inhibition of murine ephrin-B2 binding to CHO-EphB4 cells
# Experimental: as §1
IC50,fold improvement of IC50 compared to the corresponding Fab,Binder
0.23 nM,–,B4
0.1 nM,–,B5
0.16 nM,6 fold,B6
0.31 nM,–,B7
0.79 nM,–,B8

# Target: T2, myc-tagged human EphB4 on transfected …
# Assay: FACS titration of IgG4-Pro on CHO-EphB4 cells
# Experimental: For the determination of EC50 values, the 12 final IgGs were analyzed on CHO-EphB4 cells in FACS. The EC50 values of the IgGs, determined in two independent experiments, are given in Table 11 and are compared to the EC50 values of the corresponding Fab. […] Again, as already seen for the Fab, the EC50 values of the MOR07310 pool were slightly better than those of the MOR03641 pool.
EC50,EC50 (read off the curve),Binder
0.17 nM,~0.1 nM,B4
0.18 nM,–,B5
0.12 nM,–,B6
1.58 nM,~2 nM,B2
0.51 nM,–,B7
0.34 nM,–,B3
0.36 nM,–,B8

# Target: T2, myc-tagged human EphB4 on transfected …
# Assay: FACS competition on CHO-EphB4 cells, competitor murine ephrin-B2
# Experimental: as §1
row,IC50 (read off the curve),Binder
1,~0.3 nM,B4
2,~0.1 nM,B5
3,~0.1 nM,B6
4,~3 nM,B2
